In this series the test system is TAT-mMDH-eGFP fusion protein.

Experimental findings from US8735341 are described below.

With “mitochondrial processing peptidases in the matrix contents of rat liver mitochondria”, the “cleavage of the mMDH signal sequence after incubation with mitochondrial matrix contents (gel)” value was “The matrix signal peptidase progressively cleaved the mMDH signal sequence at two sites yielding two cleavage products of an estimated molecular mass of 32 kDa and 28.9 kDa”.
